This is an account of results in patent publication US10954275.

A value given as a limit tells only on which side of the number the result lay.

By Kd is commonly meant the concentration at which binding is half-saturated. Read a high Kd as weaker binding.

Assay [1] deals with AlexaFluor 647-conjugated human IgG (Jackson Immuno Research) (human). Put plainly: flow cytometry on yeast-displayed PrG, ~200 nM IgG, pH 8.2.
Assay [2] has the same target. Put plainly: flow cytometry, titration of AlexaFluor 647 human IgG on yeast-displayed PrG, pH 5.6. Background: Flow cytometry measures light scatter and fluorescence of single cells or particles in a stream.
For assay [3] the target is unchanged. Briefly: flow cytometry on yeast-displayed PrG with labelled human IgG at pH 5.6 and pH 8.2 (FIG. 6).
Assay [4] has the same target. Put plainly: flow cytometry, IgG titration on yeast-displayed PrG, pH 8.2 against pH 5.6.
For assay [5] the target is unchanged. Briefly: flow cytometry on yeast-displayed PrG, ~200 nM IgG, pH 5.6.
For assay [6] the target is unchanged. Briefly: flow cytometry, titration of AlexaFluor 647 human IgG on yeast-displayed PrG, pH 8.2.
The target is the same in assay [7]. Put plainly: flow cytometry on yeast-displayed PrG with labelled human IgG (FIG. 6), against WT PrG.

B1: Protein G EHHE C2 domain (PrG-EHHE; A24E, K28H, V29H, N35E), displayed on the yeast cell surface (designed binder, not shown: large carriers)
chain: TTYKLVINGKTLKGETTTEAVDAETAEHHFKQYAEDNGVDGEWTYDDATKTFTVTE
In the case of B1, the Percent IgG bound at IgG concentration of ~200 nM in assay [1] came out at 10%; in assay [5] it was 80%. For the same molecule, the Kd in assay [2] came to 27 nM; in assay [6] it was 1170 nM. Moreover, the fold increase of the pH dependent switch in assay [3] was greater than 2 fold. The molecule further had a fold change in binding constant, pH 5.6 to pH 8.2 in assay [4] of 40 fold.

B2: Protein G EHH C2 domain (PrG-EHH; A24E, K28H, V29H), displayed on the yeast cell surface (designed binder, not shown: large carriers)
chain: TTYKLVINGKTLKGETTTEAVDAETAEHHFKQYANDNGVDGEWTYDDATKTFTVTE
B2: the fold increase of IgG binding affinity in assay [7] was greater than 4 fold.

B3: Protein G EHHD C2 domain (PrG-EHHD; A24E, K28H, V29H, N35D), displayed on the yeast cell surface (designed binder, not shown: large carriers)
chain: TTYKLVINGKTLKGETTTEAVDAETAEHHFKQYADDNGVDGEWTYDDATKTFTVTE
B3: the Percent IgG bound at IgG concentration of ~200 nM stood at 7% in assay [1] and 65% in assay [5]. The Kd in assay [2] is 96 nM; in assay [6], 1780 nM. The fold change in binding constant, pH 5.6 to pH 8.2 in assay [4] was found to be 20 fold.

B4: Protein G ERH C2 domain (PrG-ERH; A24E, K28R, V29H), displayed on the yeast cell surface (designed binder, not shown: large carriers)
chain: TTYKLVINGKTLKGETTTEAVDAETAERHFKQYANDNGVDGEWTYDDATKTFTVTE
On to B4, for which, in assay [7], the fold increase of IgG binding affinity was greater than 4 fold.
